This passage reports binding signal (fold increase of EC50 vs no inhibitor) results from paper PMC11640836, “Aminomethylmorpholino Nucleosides as Novel Inhibitors of PARP1 and PARP2: Experimental and Molecular Modeling Analyses of Their Selectivity and Mechanism of Action” (International Journal of Molecular Sciences, 2024).

In one data set the test system is PARP1. In words: fluorescence anisotropy. Particulars: 400 nM olaparib; 50 mM NaCl, 50 mM Tris-HCl pH 8.0, 4 mM DTT; 25 nM FAM-DNA, 20-200 nM PARP1 or 20-800 nM PARP2; mixed on ice, 10 min at room temperature.
Another data set deals with PARP2. Put plainly: fluorescence anisotropy. Particulars: 800 nM olaparib; 50 mM NaCl, 50 mM Tris-HCl pH 8.0, 4 mM DTT; 25 nM FAM-DNA, 20-200 nM PARP1 or 20-800 nM PARP2; mixed on ice, 10 min at room temperature.

On to FAM gap-DNA (32-mer duplex, 1-nt gap), for which the binding signal (fold increase of EC50 vs no inhibitor) was found to be 1.8 in the data set with PARP1 and 1.6 in the data set on PARP2.
